The results in this text go back to patent US7223834.

In this series the test system is 41-mer peptide substrate (41-PS), QTVTWPDMELPLPRNITEGE-ARGSVILTVKPIFEVSPSPL-(BIOTINYL)K.

Take “aggrecan degrading metallo protease (ADMP)”: the “cleavage of 41-PS to the 21-mer product, HPLC assay” value was “Effect of incubation time was evaluated and found to be linear over the timecourse of the assay”.
